Measurements as given in paper PMC3724859 (2013).
No end group written: not given here.

Tests used:
[1] = biological target: Histidine phosphocarrier protein HPr (HPr^sc); experiment: not stated here (value quoted from ref. [19]; presumably ITC in several buffers); conditions: pH not stated; cited from earlier work
[2] = biological target: EINsc H186D EIN (Streptomyces coelicolor) (UniProt Q9KZP1); conditions: cited from earlier work
[3] = biological target: EINsite peptides (Streptomyces coelicolor) (UniProt Q9KZP1); conditions: cited from earlier work
[4] = biological target: N-terminal domain of enzyme I, wild type (EIN^sc) (UniProt Q9KZP1); experiment: ITC (Auto-ITC200) in two buffers of different ionisation enthalpy; conditions: pH 7.0; 25 C; no added salt stated; 10 mM Mes (pH 7.0) and 10 mM Mops (pH 7.0); delta H ion 3.55 and 5.05 kcal/mol
[5] = biological target: N-terminal domain of enzyme I, phosphomimetic mutant EINH186D H186D (UniProt Q9KZP1); experiment: as above; conditions: pH 7.0; 25 C; no added salt stated; 10 mM Mes (pH 7.0) and 10 mM Mops (pH 7.0); delta H ion 3.55 and 5.05 kcal/mol
[6] = biological target: EINbsite peptide (active-site region of EIN^sc) (UniProt Q9KZP1); experiment: as above; conditions: pH 7.0; 25 C; no added salt stated; 10 mM Mes (pH 7.0) and 10 mM Mops (pH 7.0); delta H ion 3.55 and 5.05 kcal/mol
[7] = biological target: EINosite peptide (HPr-contacting region of EIN^sc) (UniProt Q9KZP1); experiment: as above; conditions: pH 7.0; 25 C; no added salt stated; 10 mM Mes (pH 7.0) and 10 mM Mops (pH 7.0); delta H ion 3.55 and 5.05 kcal/mol
[8] = biological target: the molecule itself; experiment: ITC dilution
[9] = biological target: T1, EINbsite + EINosite equimolar peptide mixture (Streptomyces coelicolor, UniProt Q9KZP1, C-terminal amidation, equimolar mixture of both peptides); experiment: ITC
T1 chain 1: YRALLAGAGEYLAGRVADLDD
T1 chain 2: FVTEEGGPTSHSAILARA

[10] = biological target: T2, EINbsite peptide (Streptomyces coelicolor); experiment: ITC
T2 chain: FVTEEGGPTSHSAILARA-NH2

[11] = biological target: T3, EINH186D (enzyme I N-terminal domain) N-terminal domain (Streptomyces coelicolor, UniProt Q9KZP1); experiment: ITC
T3 chain: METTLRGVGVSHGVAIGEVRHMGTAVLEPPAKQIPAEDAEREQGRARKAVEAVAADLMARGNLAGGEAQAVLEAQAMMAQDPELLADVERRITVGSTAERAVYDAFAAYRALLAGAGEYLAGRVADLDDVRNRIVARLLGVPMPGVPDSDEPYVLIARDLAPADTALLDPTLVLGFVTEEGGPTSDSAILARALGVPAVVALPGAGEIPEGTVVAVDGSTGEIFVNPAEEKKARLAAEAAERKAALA

[12] = biological target: T4, EINsc (enzyme I N-terminal domain) N-terminal domain (Streptomyces coelicolor, UniProt Q9KZP1); experiment: ITC
T4 chain: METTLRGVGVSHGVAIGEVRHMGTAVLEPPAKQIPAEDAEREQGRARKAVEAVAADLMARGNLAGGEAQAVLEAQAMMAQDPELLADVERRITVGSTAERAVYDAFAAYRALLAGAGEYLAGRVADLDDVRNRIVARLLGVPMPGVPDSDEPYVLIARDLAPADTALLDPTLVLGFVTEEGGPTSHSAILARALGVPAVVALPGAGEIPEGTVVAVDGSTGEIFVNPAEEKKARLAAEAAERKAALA

[13] = biological target: T5, EINosite peptide (Streptomyces coelicolor, C-terminal amidation); experiment: ITC
T5 chain: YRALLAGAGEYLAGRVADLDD

For “N-terminal domain of enzyme I, wild type (EIN^sc)”, the n H [1] is given as 0.52 protons.

For HPrsc (from UniProt O50515), the Kd [2] is listed as 10 µM and the Kd [3] is listed as 16 µM.

With “Histidine phosphocarrier protein HPr (HPr^bs)” the n H [4] was 0.17 protons, the n H [5] was -0.31 protons and the n H [6] was -0.31 protons. The n H [7] was 0.28 protons.

B1: HPrbs (histidine phosphocarrier protein) (protein)
chain: MKTQQFTVIDPLGIHARPASQLVAKATPFASAIEVRTEEKAANLKSILGVMGLALKQGSQFTLYVEGEDEDQAFEALATLLTEMGLAQ
B1 showed a Kd [8] of 6.5 µM, a Kd [9] of 4.8 µM and a Kd [10] of 3.9 µM. It also gave a Kd [11] of 2.9 µM, a Kd [12] of 1.9 µM and a Kd [13] of 3 µM.
